# According to paper PMC2790891:
# B1: Cy5 p/tDNA hairpin (structured_DNA)
# DNA: TTTTTTTTTTTTTTTCGAATGGCGCTTTGCCTGGTTTTTACCAGGCAAAGCGCCATTCG
# B2: short p/tDNA 21/31-mer (dsDNA)
# DNA 1: GCTGTGCTCTCGCCGCGTGCC
# DNA 2: TATCTTCTATGGCACGCGGCGAGAGCACAGC
# B3: long p/tDNA 28/66-mer (dsDNA)
# DNA 1: CACCTCTCCCTACGCTTCCCACCCACCCCGACCGGCATCTGCTATGGTACGCTGAGCGAGAGTAGC
# DNA 2: GCTACTCTCGCTCAGCGTACCATAGCAG
# What was measured:
# [1] = molecular target: SsoDpo1 exonuclease mutant (D231A/D318A) (Sulfolobus solfataricus P2) (UniProt P26811); experiment: ITC
# [2] = molecular target: SsoDpo1 exonuclease mutant (D231A/D318A) (Sulfolobus solfataricus P2) (UniProt P26811); experiment: native gel or EMSA
# [3] = molecular target: T1, SsoDpo1 exo- (B-family DNA polymerase 1) (Sulfolobus solfataricus, UniProt P26811 1-882, D231A;D318A); experiment: fluorescence anisotropy
# T1 sequence: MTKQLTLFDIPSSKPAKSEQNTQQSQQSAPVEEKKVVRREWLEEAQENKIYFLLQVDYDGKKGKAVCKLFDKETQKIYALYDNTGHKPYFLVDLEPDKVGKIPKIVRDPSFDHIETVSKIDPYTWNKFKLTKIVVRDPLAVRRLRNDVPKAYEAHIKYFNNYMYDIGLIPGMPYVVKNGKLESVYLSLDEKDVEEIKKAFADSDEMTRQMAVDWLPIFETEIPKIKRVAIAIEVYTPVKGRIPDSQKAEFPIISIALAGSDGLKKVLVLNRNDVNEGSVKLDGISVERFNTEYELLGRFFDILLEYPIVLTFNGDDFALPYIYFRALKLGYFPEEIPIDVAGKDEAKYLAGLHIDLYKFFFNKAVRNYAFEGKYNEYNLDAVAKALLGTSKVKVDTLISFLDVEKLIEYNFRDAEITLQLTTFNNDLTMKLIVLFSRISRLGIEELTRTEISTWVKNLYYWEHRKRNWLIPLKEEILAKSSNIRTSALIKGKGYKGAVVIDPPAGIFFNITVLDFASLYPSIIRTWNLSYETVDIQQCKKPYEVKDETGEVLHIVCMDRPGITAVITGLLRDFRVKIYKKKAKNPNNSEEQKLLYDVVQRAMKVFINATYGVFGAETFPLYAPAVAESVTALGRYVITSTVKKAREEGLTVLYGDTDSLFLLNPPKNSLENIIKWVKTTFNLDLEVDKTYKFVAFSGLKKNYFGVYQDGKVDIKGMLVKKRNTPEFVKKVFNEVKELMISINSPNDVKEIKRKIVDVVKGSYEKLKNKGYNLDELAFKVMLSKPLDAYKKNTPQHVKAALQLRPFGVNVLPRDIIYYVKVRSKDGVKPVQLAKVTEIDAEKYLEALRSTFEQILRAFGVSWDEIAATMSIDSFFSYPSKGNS
# [4] = molecular target: T1, SsoDpo1 exo- (B-family DNA polymerase 1); experiment: ITC
# [5] = molecular target: T1, SsoDpo1 exo- (B-family DNA polymerase 1); experiment: EMSA
molecule,measurement,setting,value
SsoDpo1 exonuclease mutant (D231A/D318A) (from UniProt P26811 1-882) (enzyme),stoichiometry N,[1],2.84
same,stoichiometry N,[2],3.5
B1,binding result,[3],binds
B2,Kd,[4],1200 ± 100 nM
B3,Kd,[5],0.1 ± 0.01 nM
